Experimental data as given in patent publication US7919464B2, “Use of a peptide that interacts with αvβ3 integrin of endothelial cell” (Kyungpook National University Industry-Academic Cooperation …, priority 2003, dated 2011).

System: HUVECs
Experiment: HUVECs adhesion to plates coated with βig-h3, its fas-1 domains or mutants
Type: cell-based, human
Conditions: 10 μg/ml protein coated on plate; attached cells by absorbance at 405 nm; control BSA
Protocol: Cell adhesion assay was performed according to the method described by Kim, J.-E. et al., J. Biol. Chem., 277:4615946165, 2002. For this purpose, 10 μg/ml of each of the recombinant proteins (βig-h3 His-β-b, βig-h3 D-I, βig-h3 D-II, βig-h3 D-III and βig-h3 D-IV) prepared in Example 1 was placed into a flat-bottomed 96-well ELISA (enzyme-linked immunosorbent assay) plate (Costar, Corning Inc., NY) and then incubated overnight at 4° C., to coat the surface of the plate. As a control, 2% BSA was coated on the plate. Then, the plate was treated with PBS (phosphate-buffered saline) containing 2% BSA, and blocked at room temperature for one hour.
Meanwhile, HUVECs (human umbilical vein endothelial cells; Clonetics, San Diego, Calif.) were incubated in EGM medium (Clonetics, San Diego, Calif.) containing 2% FBS (Fetal Bovine Serum) under a condition of 37° C. and 5% CO2. The incubated cells were suspended in medium at a density of 3×10^5 cells/ml, and 0.1 ml of the cell suspension was added to each well of the plate. Next, the cells were incubated at 37° C. for 30 minutes and washed one time with PBS buffer to remove cells which had not been attached to the plate. Attached cells were added with 50 mM citrate buffer (pH 5.0) containing 3.75 mM p-nitrophenyl-N-acetyl β-D-glycosaminide and 0.25% Triton X-100, and incubated at 37° C. for one hour. Thereafter, 50 mM glycine buffer (pH 10.4) containing 5 mM EDTA was added to block the activity of the enzyme. The absorbance was measured at a 405-nm in a Bio-Rad model 550 microplate reader. Here, the higher the number of cells adhered to the plate, the higher the absorbance.
Each of the deletion mutants was generated by PCR using a cDNA template encoding the fourth fas-1 domain (SEQ ID NO: 5) (Kim, J.-E. et al., J. Biol. Chem., 275:30907-30915, 2000). Each of the PCR-amplified DNA fragments was cloned into the EcoRV/Xhol sites of the pET-29b(+) vector (Novagen; Madison, Wis.). The mutations were confirmed by sequence analysis, and the deletion mutants were expressed and purified according to a prior method (Kim, J.-E., et al., J. Cell. Biochem., 77:169-178, 2000). Thereafter, the cell adhesion activity of each of the deletion mutants was tested in the same manner as in Example 2.
Previously, the present inventors reported that an YH motif, which contains tyrosine-histidine residues highly conserved in the fragment corresponding to amino acids 548-614 of SEQ ID NO: 1, and several leucine and isoleucine residues adjacent to the tyrosine-histidine residues, binds to the αvβ5 integrin (Kim, J.-E., et al., J. Biol. Chem., 277:46159-46165, 2002). Thus, the present inventors suspected that the YH motif may also interact with the αvβ3 integrin to mediate endothelial cell adhesion. For this reason, in the present invention, the tyrosine-histidine residues conserved in the fas-1 domains, and/or the leucine and isolucine residues adjacent to the tyrosine-histidine residues, were substituted in various combinations by alanine or serine (Kim, J.-E., et al., J. Biol. Chem. 277:4615946165, 2002)(see FIG. 4b). The amino acid sequences of the prepared YH motif mutants are shown in SEQ ID NO: 17 to SEQ ID NO: 22. The mutations were confirmed by sequence analysis. Then, the substitution mutants were expressed and purified according to a known method (Kim, J.-E., et al., J. Cell. Biochem., 77:169-178, 2000). The substitution mutants were tested for their cell adhesion activity according to the same manner as in Example 2.

B1: βig-h3: recombinant human βig-h3 protein that expresses all of four fas-1 domains; biotinylated form used in binding assay (protein)
chain: YQRKICGKSTVISYECCPGYEKVPGEKGCPAALPLSNLYETLGVVGSTTTQLYTDRTEKLRPEMEGPGSFTIFAPSNEAWASLPAEVLDSLVSNVNIELLNALRYHMVGRRVLTDELKHGMTLTSMYQNSNIQIHHYPNGIVTVNCARLLKADHHATNGVVHLIDKVISTITNNIQQIIEIEDTFETLRAAVAASGLNTMLEGNGQYTLLAPTNEAFEKIPSETLNRILGDPEALRDLLNNHILKSAMCAEAIVAGLSVETLEGTTLEVGCSGDMLTINGKAIISNKDILATNGVIHYIDELLIPDSAKTLFELAAESDVSTAIDLFRQAGLGNHLSGSERLTLLAPLNSVFKDGTPPIDAHTRNLLRNHIIKDQLASKYLYHGQTLETLGGKKLRVFVYRNSLCIENSCIAAHDKRGRYGTLFTMDRVLTPPMGTVMDVLKGDNRFSMLVAAIQSAGLTETLNREGVYTVFAPTNEAFRALPPRERSRLLGDAKELANILKYHIGDEILVSGGIGALVRLKSLQGDKLEVSLKNNVVSVNKEPVAEPDIMATNGVVHVITNVLQPPANRPQERGDELADSALEI
- endothelial cell (HUVECs) adhesion activity: mediated the adhesion of endothelial cells
